Experimental data from ChEMBL document CHEMBL5678797, “AZD7762, a novel checkpoint kinase inhibitor, drives checkpoint abrogation and potentiates DNA-targeted therapies” (Mol Cancer Ther, 2008).

Substrate: NC(=O)Nc1cc(-c2cccc(F)c2)sc1C(=O)N[C@H]1CCCNC1
Conditions: Homo sapiens; Insect cell; time 20.0 min

B1: Serine/threonine-protein kinase Chk1 (Homo sapiens), O14757 (protein)
chain: MAVPFVEDWDLVQTLGEGAYGEVQLAVNRVTEEAVAVKIVDMKRAVDCPENIKKEICINKMLNHENVVKFYGHRREGNIQYLFLEYCSGGELFDRIEPDIGMPEPDAQRFFHQLMAGVVYLHGIGITHRDIKPENLLLDERDNLKISDFGLATVFRYNNRERLLNKMCGTLPYVAPELLKRREFHAEPVDVWSCGIVLTAMLAGELPWDQPSDSCQEYSDWKEKKTYLNPWKKIDSAPLALLHKILVENPSARITIPDIKKDRWYNKPLKKGAKRPRVTSGGVSESPSGFSKHIQSNLDFSPVNSASSEENVKYSSSQPEPRTGLSLWDTSPSYIDKLVQGISFSQPTCPDHMLLNSQLLGTPGSSQNPWQRLVKRMTRFFTKLDADKSYQCLKETCEKLGYQWKKSCMNQVTISTTDRRNNKLIFKVNLLEMDDKILVDFRLSKGDGLEFKRHFLKIKGKLIDIVSSQKIWLPAT
For B1, the Km was 80 µM.
